From PMC11964227, “Critical functions and key interactions mediated by the RNase E scaffolding domain in Pseudomonas aeruginosa” (PLOS Genetics, 2025)

T1: His10Smt3-tagged PNPase (P. aeruginosa, UniProt Q9HV59 1-701)
T1 construct: Polyribonucleotide phosphorylase (PNPase), P. aeruginosa, pnp; also called His10-Smt3-PNPase; source: soluble bacterial lysates, purified (nickel-agarose)
T1 sequence (looked up): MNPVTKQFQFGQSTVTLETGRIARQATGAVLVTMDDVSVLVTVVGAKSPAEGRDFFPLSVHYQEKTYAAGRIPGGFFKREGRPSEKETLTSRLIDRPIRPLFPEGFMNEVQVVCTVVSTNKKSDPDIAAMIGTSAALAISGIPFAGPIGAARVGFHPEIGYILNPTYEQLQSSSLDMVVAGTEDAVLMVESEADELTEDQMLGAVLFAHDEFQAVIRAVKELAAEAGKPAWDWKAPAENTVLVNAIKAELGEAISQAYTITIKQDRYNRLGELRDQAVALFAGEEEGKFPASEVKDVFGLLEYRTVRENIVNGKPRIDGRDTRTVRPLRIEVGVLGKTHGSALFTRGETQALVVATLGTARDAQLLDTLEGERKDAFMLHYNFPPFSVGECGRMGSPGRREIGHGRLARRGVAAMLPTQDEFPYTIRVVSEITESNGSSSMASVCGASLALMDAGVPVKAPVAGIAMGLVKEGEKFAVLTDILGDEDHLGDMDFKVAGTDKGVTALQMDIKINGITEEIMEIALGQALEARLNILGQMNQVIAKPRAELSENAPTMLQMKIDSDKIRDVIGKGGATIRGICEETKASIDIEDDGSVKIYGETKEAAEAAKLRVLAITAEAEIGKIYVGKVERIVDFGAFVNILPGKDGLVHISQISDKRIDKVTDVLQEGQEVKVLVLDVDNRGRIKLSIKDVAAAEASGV


What was measured:
T18-RNase E^1-1057 = molecular target: T2, T18-RNase E^1-1057 (P. aeruginosa, UniProt Q9HZM8 1-1057); experiment: two-hybrid; adenylate-cyclase-based bacterial two-hybrid in E. coli BTH101 (T18 and T25 fusions); MacConkey agar with maltose and IPTG, 30°C then room temperature; β-galactosidase activity with ONPG; conditions: partners not purified
T2 construct: source: bacterial two-hybrid fusion (pUT18C), E. coli BTH101

His10Smt3-tagged PNPase = molecular target: T1, His10Smt3-tagged PNPase; experiment: pull-down; purified Flag-tagged RNase E proteins (20-25 µg) immobilised on anti-Flag M2 magnetic beads, 5 µg of PNPase or RhlB in 100 µL buffer H (50 mM Tris-HCl pH 8.0, 150 mM NaCl, 0.01% Triton X-100), 1 hour at 4 °C; SDS-PAGE, Coomassie Blue; conditions: both partners purified

| Binder | fold increase of β-galactosidase activity compared to empty vector controls (T18-RNase E^1-1057) [fold] | binding result (His10Smt3-tagged PNPase) |
| --- | --- | --- |
| T25-PNPase (enzyme, P. aeruginosa, UniProt Q9HV59 1-701, looked up, Polyribonucleotide phosphorylase (PNPase), P. aeruginosa, pnp; source: bacterial two-hybrid fusion (pKT25), E. coli BTH101) MNPVTKQFQFGQSTVTLETGRIARQATGAVLVTMDDVSVLVTVVGAKSPAEGRDFFPLSVHYQEKTYAAGRIPGGFFKREGRPSEKETLTSRLIDRPIRPLFPEGFMNEVQVVCTVVSTNKKSDPDIAAMIGTSAALAISGIPFAGPIGAARVGFHPEIGYILNPTYEQLQSSSLDMVVAGTEDAVLMVESEADELTEDQMLGAVLFAHDEFQAVIRAVKELAAEAGKPAWDWKAPAENTVLVNAIKAELGEAISQAYTITIKQDRYNRLGELRDQAVALFAGEEEGKFPASEVKDVFGLLEYRTVRENIVNGKPRIDGRDTRTVRPLRIEVGVLGKTHGSALFTRGETQALVVATLGTARDAQLLDTLEGERKDAFMLHYNFPPFSVGECGRMGSPGRREIGHGRLARRGVAAMLPTQDEFPYTIRVVSEITESNGSSSMASVCGASLALMDAGVPVKAPVAGIAMGLVKEGEKFAVLTDILGDEDHLGDMDFKVAGTDKGVTALQMDIKINGITEEIMEIALGQALEARLNILGQMNQVIAKPRAELSENAPTMLQMKIDSDKIRDVIGKGGATIRGICEETKASIDIEDDGSVKIYGETKEAAEAAKLRVLAITAEAEIGKIYVGKVERIVDFGAFVNILPGKDGLVHISQISDKRIDKVTDVLQEGQEVKVLVLDVDNRGRIKLSIKDVAAAEASGV | 11 |  |
| T25-RhlB (enzyme, P. aeruginosa, UniProt Q9HXE5 1-397, looked up, RNA helicase RhlB, P. aeruginosa; source: bacterial two-hybrid fusion (pKT25), E. coli BTH101) MVEPQEGKTRFHDFNLAPSLMHAIHDLGFPYCTPIQAQVLGFTLRGQDAIGRAQTGTGKTAAFLISIITQLLQTPPPKERYMGEPRALIIAPTRELVVQIAKDAAALTKYTGLNVMTFVGGMDFDKQLKQLEARFCDILVATPGRLLDFNQRGEVHLDMVEVMVLDEADRMLDMGFIPQVRQIIRQTPHKGERQTLLFSATFTDDVMNLAKQWTVDPAIVEIEPENVASDTVEQHVYAVAGSDKYKLLYNLVAQNNWERVMVFANRKDEVRRIEERLTKDGISAAQMSGDVPQHKRIRTLEGFREGKIRVLVATDVAGRGIHIDGISHVINFTLPEDPDDYVHRIGRTGRAGASGTSISFAGEDDAFALPPIEELLGRKITCEMPPAELLKPVPRKH | 5 |  |
| Flag-RNase E^572-1057 (domain or fragment, P. aeruginosa, UniProt Q9HZM8 572-1057, looked up, The results call the C-terminal tag 3xFlag, the methods Twin-Strep-Flag; also called RNase E CTD with no MTS; source: soluble bacterial lysates, purified (nickel-agarose, 250 mM imidazole fraction); not shown: His10-Smt3, N-terminal, kept; Twin-Strep-Flag, C-terminal, kept) AAKPAETSKPAAERQTRQDERRNGRQQNRRRDGRDGNRRDEERKPREERAERQPREERAERPNREERSERRREERAERPAREERQPREGREERAERTPREERQPREGREGREERSERRREERAERPAREERQPREGREERAERPAREERQPREDRQARDAAALEAEALPNDESLEQDEQDDTDGERPRRRSRGQRRRSNRRERQREVSGELEGSEATDNAAAPLNTVAAAAAAGIAVASEAVEANVEQAPATTSEAASETTASDETDASTSEAVETQGADSEANTGETADIEAPVTVSVVRDEADQSTLLVAQATEEAPFASESVESREDAESAVQPATEAAEEVAAPVPVEVAAPSEPAATEEPTPAIAAVPANATGRALNDPREKRRLQREAERLAREAAAAAEAAAQAAPAVEEIPAVASEEASAQEEPAAPQAEEITQADVPSQADEAQEAVQAEPEASGEGAADTEHAKKTEESETSRPHA |  | binds |
